For data set [1], the target named is T1, ΔFOSB Cys172Ser/JUND heterodimers (Mus musculus, UniProt P13346+P15066, C172S).
T1 sequence (P13346 2-237 isoform P13346-2 C172S): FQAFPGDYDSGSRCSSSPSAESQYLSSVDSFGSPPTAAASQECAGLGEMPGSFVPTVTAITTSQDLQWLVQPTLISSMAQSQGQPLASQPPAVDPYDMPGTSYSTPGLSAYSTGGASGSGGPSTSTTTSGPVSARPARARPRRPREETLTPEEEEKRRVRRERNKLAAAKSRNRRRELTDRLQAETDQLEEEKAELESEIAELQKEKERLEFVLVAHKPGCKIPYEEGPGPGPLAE
T1 sequence (P15066 2-341): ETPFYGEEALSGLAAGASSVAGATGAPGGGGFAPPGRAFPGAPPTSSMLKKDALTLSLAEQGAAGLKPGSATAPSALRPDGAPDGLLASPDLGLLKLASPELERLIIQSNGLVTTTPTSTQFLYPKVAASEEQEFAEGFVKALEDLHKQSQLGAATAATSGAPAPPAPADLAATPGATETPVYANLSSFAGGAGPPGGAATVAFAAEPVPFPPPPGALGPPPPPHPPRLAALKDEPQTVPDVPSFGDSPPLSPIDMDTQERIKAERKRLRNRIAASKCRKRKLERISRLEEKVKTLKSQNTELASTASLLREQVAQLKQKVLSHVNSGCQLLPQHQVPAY
The data set is described as follows: FP dose-response against ΔFOSB Cys172Ser/JUND heterodimers. In kind it is binding. The following applies: 50 nM TMR-cdk5, 280 nM protein, compound 0–200 μM.

The target of a further data set is T2, ΔFOSB Cys172Ser homomers (Mus musculus, UniProt P13346, C172S).
T2 sequence (P13346 2-237 isoform P13346-2 C172S): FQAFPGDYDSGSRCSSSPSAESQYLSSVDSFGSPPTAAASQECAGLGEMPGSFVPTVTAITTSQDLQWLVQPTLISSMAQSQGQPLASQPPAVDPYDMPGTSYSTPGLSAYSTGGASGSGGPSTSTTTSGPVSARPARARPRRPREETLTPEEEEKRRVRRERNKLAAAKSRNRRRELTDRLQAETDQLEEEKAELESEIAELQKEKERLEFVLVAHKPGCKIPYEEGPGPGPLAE
The data set is described as follows: FP dose-response against ΔFOSB Cys172Ser homomers. In kind it is binding. The following applies: 50 nM TMR-cdk5, 280 nM protein, compound 0–200 μM.

Data set [2] addresses T3, ΔFOSB (N(His)6-ΔFOSB);JUND (N(His)6-JUND) (mouse;mouse, UniProt P13346-2;P15066 2-237;2-341, |).
T3 sequence 1: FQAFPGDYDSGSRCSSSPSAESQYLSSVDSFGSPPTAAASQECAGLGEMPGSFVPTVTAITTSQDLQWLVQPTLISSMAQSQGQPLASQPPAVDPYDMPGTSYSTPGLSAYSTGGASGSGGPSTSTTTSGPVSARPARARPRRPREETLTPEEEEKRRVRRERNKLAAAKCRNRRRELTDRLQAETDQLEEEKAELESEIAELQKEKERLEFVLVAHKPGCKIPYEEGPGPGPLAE
T3 sequence 2: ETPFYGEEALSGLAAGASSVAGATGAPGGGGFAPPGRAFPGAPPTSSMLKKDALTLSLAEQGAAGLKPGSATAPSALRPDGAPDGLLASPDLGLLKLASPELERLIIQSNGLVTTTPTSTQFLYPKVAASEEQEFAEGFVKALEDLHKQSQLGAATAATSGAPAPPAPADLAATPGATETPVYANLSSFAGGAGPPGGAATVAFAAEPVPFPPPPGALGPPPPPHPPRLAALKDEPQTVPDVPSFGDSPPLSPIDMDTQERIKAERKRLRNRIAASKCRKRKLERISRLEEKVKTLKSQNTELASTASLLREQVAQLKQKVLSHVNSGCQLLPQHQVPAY
The data set is described as follows: EMSA.

The next data set addresses T4, ΔFOSB Cys172Trp (mouse, UniProt P13346-2 2-237, C172W).
T4 sequence: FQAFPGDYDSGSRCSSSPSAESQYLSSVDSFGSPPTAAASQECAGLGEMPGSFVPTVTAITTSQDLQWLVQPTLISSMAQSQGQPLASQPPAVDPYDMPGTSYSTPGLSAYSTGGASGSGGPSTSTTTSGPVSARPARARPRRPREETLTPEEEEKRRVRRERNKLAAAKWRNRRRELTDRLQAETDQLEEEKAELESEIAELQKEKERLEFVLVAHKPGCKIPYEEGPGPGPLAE
Nature of the data set: fluorescence polarization.

The next data set deals with T5, ΔFOSB (N(His)6-ΔFOSB) (mouse, UniProt P13346-2 2-237).
T5 sequence: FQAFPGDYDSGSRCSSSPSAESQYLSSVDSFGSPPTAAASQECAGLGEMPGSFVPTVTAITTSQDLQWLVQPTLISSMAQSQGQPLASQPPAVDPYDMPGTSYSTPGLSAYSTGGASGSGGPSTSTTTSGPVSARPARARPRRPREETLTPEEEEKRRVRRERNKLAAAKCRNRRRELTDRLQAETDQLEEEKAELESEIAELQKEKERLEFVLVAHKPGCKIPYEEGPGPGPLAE
The data set is described as follows: fluorescence polarization.

Data set [3] has as its target T3, ΔFOSB (N(His)6-ΔFOSB);JUND …. The data set is described as follows: fluorescence polarization.

For the molecule `O=C(O)CCc1cc(C(=O)c2ccc(OC3CCCC3)cc2O)ccc1OCc1ccc2c(=O)[nH]oc2c1` [Compound T5224], the “Disruption of DNA binding to ΔFOSB Cys172Ser/JUND heterodimers” value in data set [1] was “similarly well as to the wild-type species”. Also, the “Disruption of DNA binding to ΔFOSB Cys172Ser homomers” value at ΔFOSB Cys172Ser homomers is “similarly well as to the wild-type species”.

B1: BIO-cdk5 (dsDNA)
DNA 1: CGTCGGTGACTCAAAACAC
DNA 2: GTGTTTTGAGTCACCGACG
Regarding B1, the binding result in data set [2] is on record as “binds”.

B2: TMR-cdk5 (dsDNA)
DNA 1: CGTCGGTGACTCAAAACAC
DNA 2: GTGTTTTGAGTCACCGACG
For the molecule B2, the binding result (in the data set with ΔFOSB Cys172Trp; in the data set with ΔFOSB (N(His)6-ΔFOSB); in data set [3]) was “binds” in each case.

These data come from article PMC9458432 (Nucleic Acids Research, 2022).
